Key:
[1] = target: T1, GST-MINT1 PDZ domain 1 (Mus musculus (Mouse)), B2RUJ5; test: G assay titration, PDZ 5 ug/ml
T1 chain: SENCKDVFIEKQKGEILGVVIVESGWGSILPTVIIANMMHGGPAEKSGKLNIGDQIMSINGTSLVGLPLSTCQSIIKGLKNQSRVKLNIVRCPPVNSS

[2] = target: T2, GST-SYNTENIN PDZ domain 1 (Homo sapiens (Human)), O00560; test: G assay titration, PDZ 5 ug/ml
T2 chain: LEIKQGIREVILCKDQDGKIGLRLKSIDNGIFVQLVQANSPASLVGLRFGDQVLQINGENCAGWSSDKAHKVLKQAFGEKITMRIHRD

[3] = target: T3, GST-TIP-1 (Example 3) (human), O14907; test: ratio of G assay Kd values
T3 chain: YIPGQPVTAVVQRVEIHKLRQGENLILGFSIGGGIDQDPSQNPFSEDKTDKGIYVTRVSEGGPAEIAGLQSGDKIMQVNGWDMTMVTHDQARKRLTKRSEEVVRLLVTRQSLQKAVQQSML

[4] = target: T4, GST-SITAC-18 PDZ domain 1 (Homo sapiens (Human)), Q9H190; test: G assay titration, PDZ 5 ug/ml
T4 chain: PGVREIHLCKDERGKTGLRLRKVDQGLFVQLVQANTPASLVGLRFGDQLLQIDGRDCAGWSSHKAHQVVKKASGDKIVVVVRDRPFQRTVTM

[5] = target: T5, GST-SITAC-18 PDZ domain 2 (Homo sapiens (Human)), Q9H190; test: G assay titration, PDZ 5 ug/ml
T5 chain: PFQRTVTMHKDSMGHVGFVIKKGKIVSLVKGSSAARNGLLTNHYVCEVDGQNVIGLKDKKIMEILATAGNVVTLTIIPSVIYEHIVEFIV

[6] = target: T6, GST-NeDLG PDZ domain 2 (Rattus norvegicus (Rat)), Q62936; test: G assay titration, PDZ 5 ug/ml
T6 chain: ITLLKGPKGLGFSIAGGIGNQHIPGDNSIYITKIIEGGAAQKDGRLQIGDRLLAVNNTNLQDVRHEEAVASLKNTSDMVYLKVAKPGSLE

[7] = target: T7, GST-FLJ 10324 PDZ domain 1 [GST: P08515]; test: G assay titration, PDZ 5 ug/ml
T7 chain: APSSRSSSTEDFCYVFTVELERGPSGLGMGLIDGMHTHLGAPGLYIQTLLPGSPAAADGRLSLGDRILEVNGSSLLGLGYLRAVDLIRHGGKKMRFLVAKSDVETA

[8] = target: GST-PSD95 PDZ domain 1 (Homo sapiens); test: G assay titration, PDZ 5 ug/ml
[9] = target: GST-KIAA1634 PDZ domain 4 (Homo sapiens (Human)), Q5TCQ9; test: G assay titration, PDZ 5 ug/ml
[10] = target: GST-Atrophin-1 Interacting Protein PDZ domain 3 (Rattus norvegicus (Rat)), O88382; test: G assay titration, PDZ 5 ug/ml
[11] = target: T8, GST-Connector Enhancer PDZ domain 1 (Homo sapiens (Human)), Q969H4; test: G assay titration, PDZ 5 ug/ml
T8 chain: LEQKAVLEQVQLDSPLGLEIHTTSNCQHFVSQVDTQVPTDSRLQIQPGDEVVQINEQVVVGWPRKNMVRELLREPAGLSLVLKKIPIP

[12] = target: T9, GST-KIAA0807(S) PDZ domain 1 (Homo sapiens (Human)), Q6P0Q8; test: G assay titration, PDZ 5 ug/ml
T9 chain: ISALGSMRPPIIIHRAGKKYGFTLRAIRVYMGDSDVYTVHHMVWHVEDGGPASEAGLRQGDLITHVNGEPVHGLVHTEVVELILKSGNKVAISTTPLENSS

[13] = target: GST-Atrophin-1 Interacting Protein PDZ domain 1 (Rattus norvegicus (Rat)), O88382; test: G assay titration, PDZ 0.5 ug/ml
[14] = target: GST-BAI-1 Associated Protein PDZ domain 3 (Homo sapiens (Human)), Q96QZ7; test: G assay titration, PDZ 0.5 ug/ml
[15] = target: T10, GST-DLG2 PDZ domain 2 (Homo sapiens (Human)), Q15700; test: G assay titration, PDZ 0.5 ug/ml
T10 chain: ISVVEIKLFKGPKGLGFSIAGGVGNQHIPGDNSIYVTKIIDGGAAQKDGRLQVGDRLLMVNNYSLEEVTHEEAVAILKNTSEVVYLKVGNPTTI

[16] = target: T11, GST-MINT1 PDZ domains 1, 2, Q02410; test: G assay titration, PDZ 5 ug/ml
T11 chain: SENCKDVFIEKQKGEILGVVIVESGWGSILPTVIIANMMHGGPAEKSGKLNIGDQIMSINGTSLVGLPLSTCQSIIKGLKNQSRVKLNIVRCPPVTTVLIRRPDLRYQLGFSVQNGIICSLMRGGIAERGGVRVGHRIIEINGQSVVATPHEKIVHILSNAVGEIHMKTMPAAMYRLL

[17] = target: T12, GST-APXL-1 PDZ domain 1 (Homo sapiens (Human)), Q13796; test: G assay titration, PDZ 0.5 ug/ml
T12 chain: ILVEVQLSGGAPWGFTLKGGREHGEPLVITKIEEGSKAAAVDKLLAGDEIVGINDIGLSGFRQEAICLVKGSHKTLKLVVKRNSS

[18] = target: GST-TAX IP2 PDZ domain 1 [GST: P08515]; test: G assay titration, PDZ 5 ug/ml
[19] = target: T13, GST-FLJ00011 PDZ domain 1 (Homo sapiens (Human)), Q9H5P4; test: G assay titration, PDZ 5 ug/ml
T13 chain: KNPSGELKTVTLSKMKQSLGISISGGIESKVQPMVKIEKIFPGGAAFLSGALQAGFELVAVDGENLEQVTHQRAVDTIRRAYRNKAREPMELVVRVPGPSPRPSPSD

Sequence of GST-Atrophin-1 Interacting Protein PDZ domain 1 (Rattus norvegicus (Rat)), O88382 (O88382 408-511): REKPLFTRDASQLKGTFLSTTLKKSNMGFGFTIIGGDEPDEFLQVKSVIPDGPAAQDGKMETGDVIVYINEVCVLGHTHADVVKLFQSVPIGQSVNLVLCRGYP
Sequence of GST-Atrophin-1 Interacting Protein PDZ domain 3 (Rattus norvegicus (Rat)), O88382 (O88382 774-865, tags or fused parts left off): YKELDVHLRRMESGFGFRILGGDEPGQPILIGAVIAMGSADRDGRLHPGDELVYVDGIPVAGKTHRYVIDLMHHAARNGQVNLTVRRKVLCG
Sequence of GST-TAX IP2 PDZ domain 1 [GST: P08515] (P08515 whole entry, the tested form may be a part): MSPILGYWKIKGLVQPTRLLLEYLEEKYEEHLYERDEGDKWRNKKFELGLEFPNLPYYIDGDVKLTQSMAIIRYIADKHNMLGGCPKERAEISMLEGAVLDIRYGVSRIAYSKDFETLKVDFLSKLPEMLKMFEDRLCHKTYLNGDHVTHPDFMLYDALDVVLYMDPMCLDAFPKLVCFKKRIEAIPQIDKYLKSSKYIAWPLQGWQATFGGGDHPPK
Sequence of GST-BAI-1 Associated Protein PDZ domain 3 (Homo sapiens (Human)), Q96QZ7 (Q96QZ7 other isoform, or with tags, fused parts or gaps): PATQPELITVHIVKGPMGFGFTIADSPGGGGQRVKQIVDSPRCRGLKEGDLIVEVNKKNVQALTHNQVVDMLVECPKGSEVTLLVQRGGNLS
Sequence of GST-KIAA1634 PDZ domain 4 (Homo sapiens (Human)), Q5TCQ9 (Q5TCQ9 844-945): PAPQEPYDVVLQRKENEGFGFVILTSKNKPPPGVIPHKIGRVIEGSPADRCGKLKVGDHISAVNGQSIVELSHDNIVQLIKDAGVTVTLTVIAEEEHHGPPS

KTMPAAMYRLLTAQEQPVYI (modifications not checked) [MINT-1]
Kd [1]: 2000 nM
Kd [2]: 800 nM

QISPGGLEPPSEKHFRETEV (modifications not checked) [TAX]
fold stronger binding than CD95 [3]: > 3000 fold

ILNSIQVMRAQMNQIQSVEV (modifications not checked) [ephrin B2]
Kd [4]: 4000 nM
Kd [5]: 5000 nM

VGTLLLERVIFPSVKIATLV (modifications not checked) [AdenoE4 typ9]
Kd [6]: 100 nM
Kd [7]: 100 nM
Kd [8]: 100 nM
Kd [9]: 200 nM
Kd [10]: 100 nM
Kd [11]: 100 nM
Kd [12]: 200 nM
Kd [13]: 20 nM
Kd [14]: 75 nM
Kd [15]: 50 nM

PIPAGGCTFSGIFPTLTSPL (modifications not checked) [KIA 1481]
Kd [16]: 800 nM
Kd [17]: 600 nM

VPGALDYAAFSSALYGESDL (modifications not checked) [a-actinin 2]
Kd [18]: 2500 nM

AWDDSARAAGGQGLHVTAL (modifications not checked) [LPAP]
Kd [19]: 1500 nM
